Residue numbers refer to the chain shown, from its start. In names and notes the source's numbering stands. Entries after “also recorded” stand apart in the source; their conditions may differ.
Experiments:
FBXO44 [1] = conditions: ref [24]; cited from earlier work
Excerpt: However, evidence of a direct interaction between RGS2 and FBXO44 has, until now, not yet been established. Thus, we first aimed to verify that purified FBXO44 would bind the degron sequence in vitro. […] This also c ...

RGS2-HA = test: Coimmunoprecipitation of FLAG-FBXO44 mutant with RGS2-HA; type: cell-based; conditions: HEK-293T cells, HA tag IP, normalized to input, % of WT, three independent experiments
Experimental: (§1) Figure 6 Point mutations disrupt the RGS2–FBXO44 association. Co-IP was performed in HEK-293T cells transiently transfected with RGS2-HA and FLAG-FBXO44 (WT and mutants as indicated). […] Representative blot and quantification of four independent experiments. […] Levels of each protein were normalized to input and expressed as % of WT. Representative blot and quantification of three independent experiments. ∗p < 0.05; ∗∗∗∗p < 0.0001 using Student's unpaired t test. Co-IP, coimmunoprecipitation; FBXO44, F-box only protein 44; RGS2, regulator of G protein signaling 2.
(§2) Cells were maintained in a humidified incubator at 37 °C with 5% CO2. HEK-293T cells were obtained from the American Type Culture Collection (ATCC; CRL-1573). The American Type Culture Collection cell lines are subjected to comprehensive and repeated authentication and contamination checks, ensuring confirmation of cell line identity and ensuring that it is free of contamination prior to supplying it to users. Cells underwent periodical (every 6 months) mycoplasma testing to ensure cell lines are not compromised. Cells were cultured in Dulbecco's modified Eagle's medium (Gibco, catalog no.: 11995) and supplemented with 10% fetal bovine serum (Gibco, catalog no.: 16000). Cells were transfected with DNA plasmids using Lipofectamine 3000 (Invitrogen) under reduced serum conditions in Opti-MEM (Gibco, catalog no.: 31985). […]

HEK-293T cells [2] = test: RGS2 protein levels, baseline and with proteasome inhibitor MG-132; type: cell-based, human; conditions: for change of RGS2 protein levels with MG-132 / change of RGS2 protein levels with MG-132 (Fig. S4): MG-132 10 μM, 4 h
Excerpt: Representative Western blot and quantification of three independent experiments. […] Representative Western blot and quantification of three independent experiments. Representative Western blot (D), quantification of knockdown efficiency (E), and effects on RGS protein levels (F) when FBXO44 is knocked down using siRNA. […] Result of three independent experiments. ∗p < 0.05; ∗∗p < 0.01; ∗∗∗p < 0.001 using two-way ANOVA followed by Tukey's post hoc test for pairwise comparisons (C, E, and F). FBXO44, F-box only protein 44; HEK-293T, human embryonic kidney-293T cell line; RGS2, regulator of G protein signaling 2.
(§3) Cells were harvested on ice in lysis buffer containing protease inhibitors (50 mM Tris–HCl [pH 7.4], 5 mM NaCl, 0.5 mM EDTA, 1% Triton X-100, 10% cOmplete Protease Inhibitor Cocktail EDTA-free). Lysates were bath sonicated for 10 min at 4 °C, centrifuged at 6000g for 3 min, and the supernatant was used for SDS-PAGE and immunoblotting. Total protein concentration was determined using the Pierce BCA Protein Assay Kit. Samples were diluted to 1 μg/μl in protein sample loading buffer (Li-Cor Biosciences).
(§4) Equal amounts of protein in each lane were resolved on a 12% SDS-PAGE gel for 1 h at 160 V. Samples were transferred to an Immobilon-FL PVDF membrane (Millipore) and subjected to Western immunoblot analysis using Li-Cor blocking buffer for both blocking and antibody diluents. Membranes were blocked for 1 h, then incubated for 2 h in primary antibodies as described under “Antibodies,” and finally incubated for 1 h with IRDye secondary antibodies directed at the species of the primary antibody. Following each antibody incubation, membranes were washed four times in PBS with 0.1% Tween-20. Membranes were imaged using an Azure600 imaging system (Azure Biosystems).
Figure S4. Effect of RGS2 mutations on protein stability. Representative western blot and quantification of five or six independent experiments (varies by mutation). The proteasome inhibitor MG-132 (10 μM, 4 h) […]
P15R were predicted to destabilize RGS2, due to increased binding to FBXO44 in the peptide microarray. […]
significant. *P<0.05; ***P<0.001 using two-way ANOVA followed by Tukey’s post hoc test for pairwise

FBXO44 [3] = test: siRNA-mediated FBXO44 knockdown, Western blot; type: cell-based, human; conditions: HEK-293T cells; for RGS2 protein levels upon FBXO44 knockdown: FBXO44 siRNA, Fig. 7, D and F, three independent experiments
Experimental: Using a pool of 4 siRNA oligos (siGENOME SMART Pools; Dharmacon/Revvity), we achieved ∼70% reduction in endogenous FBXO44 protein levels in HEK-293T cells (Fig. 7, D and E).
Cells were maintained in a humidified incubator at 37 °C with 5% CO2. HEK-293T cells were obtained from the American Type Culture Collection (ATCC; CRL-1573). The American Type Culture Collection cell lines are subjected to comprehensive and repeated authentication and contamination checks, ensuring confirmation of cell line identity and ensuring that it is free of contamination prior to supplying it to users. Cells underwent periodical (every 6 months) mycoplasma testing to ensure cell lines are not compromised. Cells were cultured in Dulbecco's modified Eagle's medium (Gibco, catalog no.: 11995) and supplemented with 10% fetal bovine serum (Gibco, catalog no.: 16000). Cells were transfected with DNA plasmids using Lipofectamine 3000 (Invitrogen) under reduced serum conditions in Opti-MEM (Gibco, catalog no.: 31985). Media were changed to Dulbecco's modified Eagle's medium supplemented with 0.5% fetal bovine serum after 4 to 6 h, and cells were harvested for experiments 24 h after transfection. siRNA transfections were performed under reduced serum conditions in Opti-MEM 24 h prior to DNA transfections at 40% to 60% confluency. Cells were transfected with siGENOME SMART-POOL siRNA (FBXO44, M-019201-01-0005; Nontargeting, D-001206-13-05) from Dharmacon (Revvity) using Lipofectamine RNAiMAX (Invitrogen). Experiments were performed 72 h after transfection.
Cells were harvested on ice in lysis buffer containing protease inhibitors (50 mM Tris–HCl [pH 7.4], 5 mM NaCl, 0.5 mM EDTA, 1% Triton X-100, 10% cOmplete Protease Inhibitor Cocktail EDTA-free). Lysates were bath sonicated for 10 min at 4 °C, centrifuged at 6000g for 3 min, and the supernatant was used for SDS-PAGE and immunoblotting. Total protein concentration was determined using the Pierce BCA Protein Assay Kit. Samples were diluted to 1 μg/μl in protein sample loading buffer (Li-Cor Biosciences). […]

HEK-293T cells [4] = test: Cycloheximide (CHX) chase assay; type: cell-based, human; conditions: for RGS2 protein half-life (t1/2): CHX 50 μM, Western blot, three independent experiments
Experimental: HEK-293T cells in 12-well plates, transiently transfected with either RGS2^WT or RGS2^C13S, were treated with CHX (50 μM) at indicated time points. Cells were harvested as described later and subjected to SDS-PAGE and Western blot.
as §3, §4

FLAG-FBXO44 = test: Coimmunoprecipitation of RGS2-HA mutant with FLAG-FBXO44; type: cell-based; conditions: HEK-293T cells, HA tag IP, normalized to input, % of WT; four independent experiments
Experimental: as §1, §2

[5] = Fig. 7, B and C, three independent experiments
[6] = Fig. S4, five or six independent experiments

B1: RGS4: closely related RGS4, subject to proteasomal degradation by a different pathway (protein, UniProt P49798 1-205, looked up)
Regulator of G-protein …: MCKGLAGLPASCLRSAKDMKHRLGFLLQKSDSCEHNSSHNKKDKVVICQRVSQEEVKKWAESLENLISHECGLAAFKAFLKSEYSEENIDFWISCEEYKKIKSPSKLSPKAKKIYNEFISVQATKEVNLDSCTREETSRNMLEPTITCFDEAQKKIFNLMEKDSYRRFLKSRFYLDLVNPSSCGAEKQKGAKSSADCASLVPQCA
- co-IP with FBXO44 (FBXO44 [1]): does not coimmunoprecipitate with FBXO44

B2: FLAG-FBXO44^Y234A: FLAG-tagged FBXO44 with Y234A mutation (protein)
chain: MAVGNINELPENILLELFTHVPARQLLLNCRLVCSLWRDLIDLVTLWKRKCLREGFITEDWDQPVADWKIFYFLRSLHRNLLHNPCAEEGFEFWSLDVNGGDEWKVEDLSRDQRKEFPNDQVKKYFVTSYYTCLKSQVVDLKAEGYWEELMDTTRPDIEVKDWFAARPDCGSKYQLCVQLLSSAHAPLGTFQPDPATIQQKSDAKWREVSHTFSNYPPGVRYIWFQHGGVDTHAWAGWYGPRVTNSSITIGPPLP
modifications: left off: FLAG, end not stated, kept
notes: FLAG-tagged FBXO44 with Y234A mutation
- association with RGS2-HA (co-IP) (RGS2-HA): associates significantly less
- association with RGS2-HA (co-IP) (RGS2-HA; listed as FBXO44^Y234A): significantly reduced association

B3: RGS2^WT: full-length wild-type RGS2 expressed in HEK-293T cells (protein)
chain: MQSAMFLAVQHDCRPMDKSAGSGHKSEEKREKMKRTLLKDWKTRLSYFLQNSSTPGKPKTGKKSKQQAFIKPSPEEAQLWSEAFDELLASKYGLAAFRAFLKSEFCEENIEFWLACEDFKKTKSPQKLSSKARKIYTDFIEKEAPKEINIDFQTKTLIAQNIQEATSGCFTTAQKRVYSLMENNSYPRFLESEFYQDLCKKPQITTEPHAT
modifications: left off: HA, end not stated, kept
notes: full-length wild-type RGS2 expressed in HEK-293T cells
- change of RGS2 protein levels with MG-132 (HEK-293T cells [2]; [5]): significantly enhanced
- change of RGS2 protein levels with MG-132 (Fig. S4) (HEK-293T cells [2]; [6]): significantly increases
- RGS2 protein levels upon FBXO44 knockdown (FBXO44 [3]): significantly increases; also recorded: significant increase
- RGS2 protein half-life (t1/2) (HEK-293T cells [4]; transfected HEK-293T): 19.5 min

B4: RGS2^C13S-HA: HA-tagged RGS2 with C13S mutation (protein)
chain: B3 chain with C13S
modifications: left off: HA, end not stated, kept
notes: HA-tagged RGS2 with C13S mutation
- association with FLAG-FBXO44 (co-IP) (FLAG-FBXO44): significantly reduced association; also recorded: associates significantly less

B5: RGS2^C13S: full-length RGS2 with C13S mutation (protein)
chain: B3 chain with C13S
modifications: left off: HA, end not stated, kept
notes: full-length RGS2 with C13S mutation
- change of RGS2 protein levels with MG-132 (HEK-293T cells [2]; [5]): not significantly changed; also recorded: does not significantly change
- basal RGS2 protein level versus RGS2^WT (HEK-293T cells [2]; no MG-132, Fig. 7, B and C, three independent experiments): increased protein levels at baseline; however, this increase was not statistically significant; also recorded: upward trend in basal expression
- RGS2 protein levels upon FBXO44 knockdown (FBXO44 [3]): significantly increases RGS2^WT but not RGS2^C13S protein levels; also recorded: significant increase in RGS2^WT but not RGS2^C13S protein levels
- RGS2^C13S expression level versus RGS2^WT in siRNA experiments (FBXO44 [3]; Fig. 7F): significantly higher levels than RGS2^WT
- extension of RGS2 protein half-life versus RGS2^WT (HEK-293T cells [4]; CHX chase, RGS2^C13S versus RGS2^WT): almost twofold; also recorded: almost double that of RGS2^WT
- RGS2 protein stability versus RGS2^WT (in words) (HEK-293T cells [4]; CHX chase, transfected HEK-293T): significantly stabilized
- RGS2 protein half-life (t1/2) (HEK-293T cells [4]; transfected HEK-293T): 33.5 min

B6: RGS2^D12R: full-length RGS2 with D12R mutation (protein, UniProt P41220 1-211, looked up, variant D12R)
chain: B3 chain with D12R
modifications: full-length
notes: full-length RGS2 with D12R mutation
- change of RGS2 protein levels with MG-132 (Fig. S4) (HEK-293T cells [2]; [6]): none of these mutations resulted in significant changes in basal expression or response to MG-132
- basal RGS2 protein expression versus RGS2^WT (Fig. S4) (HEK-293T cells [2]; no MG-132, Fig. S4, five or six independent experiments): trend toward lower basal expression
